Test results published in patent US20160237132A1 (ALKERMES, published 2016).
One block for each binder: values may come before it.

Biological target: IL-6 (UniProt P05231 30-212, limits assumed)
Experiment: cell-based or functional assay

IL-6, sequence (P05231 30-212 limits assumed): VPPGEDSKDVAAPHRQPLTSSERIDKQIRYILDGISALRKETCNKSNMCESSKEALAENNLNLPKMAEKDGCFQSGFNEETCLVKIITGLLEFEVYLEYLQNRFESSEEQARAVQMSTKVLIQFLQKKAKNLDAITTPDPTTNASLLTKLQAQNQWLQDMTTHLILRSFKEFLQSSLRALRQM

IC50, inhibition of IL-6-dependent differentiation of M1 cells (percent CD32 positive cells): 0.0026 µM | fold potency against RDB1542, inhibition of IL-6-dependent differentiation of M1 cells: > 400 fold
B1: RDB1562 (Fc fusion)
chain: QNQWLQDMTTHLILRSFKEFLQSSLRALRQMSGGSGGGSSERIDKQIRYILDGISALRKETCNKSNMCESSKEALAENNLNLPKMAEKDGCFQSGFNEETCLVKIITGLLEFEVYLEYLQNRFESSEEQARAVQMSTKVLIQFLQKKAKNLDAITTPDPTTNASLLTKLQASELLDPCGYISPESPVVQLHSNFTAVCVLKEKCMDYFHVNANYIVWKTNHFTIPKEQYTIINRTASSVTFTDIASLNIQLTCNILTFGQLEQNVYGITIISGGGGGSASSESSASSDGPHPVITESRASSESSASSDGPHPVITESRSERKCCVECPPCPAPPVAGPSVFLFPPKPKDTLMISRTPEVTCVVVDVSHEDPEVQFNWYVDGVEVHNAKTKPREEQFNSTFRVVSVLTVVHQDWLNGKEYKCKVSNKGLPAPIEKTISKTKGQPREPQVYTLPPSREEMTKNQVSLTCLVKGFYPSDISVEWESNGQPENNYKTTPPMLDSDGSFFLYSKLTVDKSRWQQGNVFSCSVMHEALHNHYTQKSLSLSPGK

IC50, inhibition of IL-6-dependent differentiation of M1 cells (percent CD32 positive cells): > 1000 µM
B2: RDB1542 (Fc fusion)
chain: QNQWLQDMTTHLILRSFKEFLQSSLRALRQMSGGSGGGSSERIDKQIRYILDGISALRKETCNKSNMCESSKEALAENNLNLPKMAEKDGCFQSGFNEETCLVKIITGLLEFEVYLEYLQNRFESSEEQARAVQMSTKVLIQFLQKKAKNLDAITTPDPTTNASLLTKLQASELLDPCGYISPESPVVQLHSNFTAVCVLKEKCMDYFHVNANYIVWKTNHFTIPKEQYTIINRTASSVTFTDIASLNIQLTCNILTFGQLEQNVYGITIISGGSERKCCVECPPCPAPPVAGPSVFLFPPKPKDTLMISRTPEVTCVVVDVSHEDPEVQFNWYVDGVEVHNAKTKPREEQFNSTFRVVSVLTVVHQDWLNGKEYKCKVSNKGLPAPIEKTISKTKGQPREPQVYTLPPSREEMTKNQVSLTCLVKGFYPSDISVEWESNGQPENNYKTTPPMLDSDGSFFLYSKLTVDKSRWQQGNVFSCSVMHEALHNHYTQKSLSLSPGK
